One protein from patent US20030171557 can be followed below.

The target of series [1] is GST protein [GST: P08515].
For series [2], the target named is GST-IkBα protein [GST: P08515].
A further series concerns the target T1, IkBα C-terminal peptide.
T1 chain: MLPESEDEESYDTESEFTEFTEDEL

Sequence of GST protein [GST: P08515] (P08515 whole entry): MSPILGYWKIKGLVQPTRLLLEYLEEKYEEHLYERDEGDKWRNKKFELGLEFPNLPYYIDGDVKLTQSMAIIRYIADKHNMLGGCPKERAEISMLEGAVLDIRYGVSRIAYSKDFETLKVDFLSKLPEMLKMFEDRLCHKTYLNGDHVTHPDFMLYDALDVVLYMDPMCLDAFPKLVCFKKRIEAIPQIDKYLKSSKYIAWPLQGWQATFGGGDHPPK

B1: GST fusion protein with wild VRK1 protein (protein)
chain: MPRVKAAQAGRQSSAKRHLAEQFAVGEIITDMAKKEWKVGLPIGQGGFGCIYLADMNSSESVGSDAPCVVKVEPSDNGPLFTELKFYQRAAKPEQIQKWIRTRKLKYLGVPKYWGSGLHDKNGKSYRFMIMDRFGSDLQKIYEANAKRFSRKTVLQLSLRILDILEYIHEHEYVHGDIKASNLLLNYKNPDQVYLVDYGLAYRYCPEGVHKEYKEDPKRCHDGTIEFTSIDAHNGVAPSRRGDLEILGYCMIQWLTGHLPWEDNLKDPKYVRDSKIRYRENIASLMDKCFPEKNKPGEIAKYMETVKLLDYTEKPLYENLRDILLQGLKAIGSKDDGKLDLSVVENGGLKAKTITKKRKKEIEESKEPGVEDTEWSNTQTEEAIQTRSRTRKRVQK
As for B1, the “kinase assay, phosphorylation of substrate ([γ-32P]-ATP, SDS-PAGE, 10 mM Mg)” value in series [1] was “GST protein was not phosphorylated by VRK1”; in series [2], “wild VRK1 protein phosphorylates casein and GST-IkBα”; with casein (Sigma), “wild VRK1 protein phosphorylates casein and GST-IkBα”. Further, in the series with IkBα C-terminal peptide, the “kinase assay, phosphorylation of substrate ([γ-32P]-ATP, SDS-PAGE)” value is given as “Arrows indicate ... phosphorylated IkBα C-terminal peptide (“P”)”. Besides, the “kinase assay with casein as substrate in the presence of Mg, Mn, Zn or Ca at 2 mM or 10 mM” value with casein (Sigma) is on record as “VRK1 exhibits phosphorylation activity in the presence of all divalent cations except for Zn ... especially strong activity in the presence of Mn”.
